According to US20250340623A1:

Key:
[1] = molecular target: alpha-synuclein fibrils, P37840; experiment: SPR, captured mAb; conditions: remark: other sources report otherwise
[2] = molecular target: monomeric alpha-synuclein, P37840; experiment: SPR, captured mAb; conditions: remark: other sources report otherwise

| Kd [1] | koff [1] | kon [1] | Kd [2] | koff [2] | kon [2] | Binder |
| --- | --- | --- | --- | --- | --- | --- |
| 0.0189 µM | 0.000234 s⁻¹ | 12400 M⁻¹ s⁻¹ | 0.0039 µM | 0.000867 s⁻¹ | 223000 M⁻¹ s⁻¹ | ACI-7079-2602G4-Ab4 (antibody, V domains shown) VH: EVQLVESGGGLVQPKGSLKLSCAASGFTFKTYAMHWVRQAPGKGLEWVARIRSKGSDYATYYADSVKDRFTISRDDSQSMLYLQMNNLKTEDTAMYFCVRGGADSWFAYWGQGTLVTVST VL: QIVLTQSPAIMSASPGERITMTCTASSSVSYMHWYQQKSGTSPKRWIYDTSKLASGVPARFSGSGSGASYTLTISSMEAEDAATYYCQQWNRNPPTFGGGTQLAIK |
| 0.0174 µM | 0.000294 s⁻¹ | 16800 M⁻¹ s⁻¹ | 0.0039 µM | 0.00109 s⁻¹ | 283000 M⁻¹ s⁻¹ | ACI-7079-2605B3-Ab2 (antibody, V domains shown) VH: EVQLVESGGGLVQPKGSLKLSCAASGFIFKTYAMHWVRQAPGKGLEWVARIRSKGGNYATYFADSVKDRFTISRDDSQNMLYLQVNNLKIEDTAMYFCVRGGNYSWFAYWGQGTLVTVSA VL: QIVLTQSPAIMSASPGEKVTMTCSASSSVTYMHWYQQKSGTSPKRWIYDTSQLASGVPARFSGSGSGTSHSLTISSMETEDAATYYCQQWTRNPPTFGGGTKLAIK |
| 0.0865 µM | 0.000898 s⁻¹ | 10400 M⁻¹ s⁻¹ | 0.119 µM | 0.00329 s⁻¹ | 27600 M⁻¹ s⁻¹ | ACI-7088-4301H3-Ab2 (antibody, V domains shown) VH: EVQLQQSGPELVKPGASVKISCKASGYTFADYFMNWVKQSHGKSLEWIGDINPNNGGTTYNQKFKGKATLTVDKSSNTAYMELRSLTSEDSAVYYCARGRNYAMDYWGQGTSVTVSS VL: DIVMSQSPSSLAVSAGEKVTMSCKSSQSLLNSRTRKNYLAWYQQKPGQSPKLLIYSASTRESGVPDRFTGSGFGTDFTLTISSVQAEDLAVYYCKQSYDLWTFGGGTKLEIK |
| 0.0349 µM | 0.000668 s⁻¹ | 19100 M⁻¹ s⁻¹ | 0.0026 µM | 0.000642 s⁻¹ | 245000 M⁻¹ s⁻¹ | ACI-7079-2507B3-Ab1 (antibody, V domains shown) VH: EVQLVESGGGLVQPKGSLKVSCAASGFTFKTYAMHWVRQAPGKGLEWVARIRSENSNFAKYYADSVKDRFTISRDDSQSMLYLQMHTLKTEDTAIYYCVRGYNGSSLDYWGQGTTLTVSS VL: QIVLTQSPAIMSAFPGERVTMTCSASSSVNYMHWYQQKSGTSPKRWIYDTSKLASGVPARFSGGGSGTSYSLTISNMEAEDAATYYCQQWRSNPPTFGGGTKLEIK |
| 0.025 µM | 0.00721 s⁻¹ | 284000 M⁻¹ s⁻¹ | 0.0232 µM | 0.005 s⁻¹ | 218000 M⁻¹ s⁻¹ | ACI-7067-1106A8-Ab2 (antibody, V domains shown) VH: EVQLVESGGGLVQPKGSLKLSCAASGFTFNTYAMHWVRQAPGKGLEWVARIRSKGSNYATNYADSVKDRFTISRDDSQSMLYLQMNNLKTEDTAMYYCVRGHGSSYFSYWGQGTLVTVSA VL: QIVLTQSPAIMSASPGEKVTMTCSASSSVSYMHWYQQKSGTSPKRWIYDTSNLASGVPARFSGSGSGTSYSLTISSMEAEDAATYYCQQWNSHPPTFGAGTKLELK |
| 0.0088 µM | 0.000161 s⁻¹ | 18300 M⁻¹ s⁻¹ | 0.0024 µM | 0.00051 s⁻¹ | 210000 M⁻¹ s⁻¹ | ACI-7079-2506F3-Ab1 (antibody, V domains shown) VH: QVQLQQPGAELVKPGASVKLSCKASGYTFTTYWMQWVKQRPGQGLEWIGEIDPSDSYINYNQKFKGKATLTVDTSSSTAFMQLSSLTSEDSAVYYCARGMMDYWGQGTSVTVSS VL: DVLMTQTPLSLPVSLGDQASISCRSSQSIVHSNGNTYLEWYLQKPGQSPKLLIYKVSNRFSGVPDRFSGSGSGTDFTLKISRVEAEDLGVYYCFKGSHVPYTFGGGTKLEIK |
| 0.0037 µM | 6.54e-05 s⁻¹ | 17700 M⁻¹ s⁻¹ |  |  |  | ACI-8033-1G10-Ab1 (antibody, V domains shown) VH: DVQLQESGPGLVKPSQTVFLTCTVTGISITTGNYRWSWIRQFPGNKLEWIGYIYYSGTITYNPSLTSRTTITRDTPKNQFFLEMNSLTAEDTATYYCARIYYGNAMDYWGQGTSVTVSS VL: DVVMTQTPLSLPVSLGDQASISCRSSQSLVHSNGNTYLHWYLQKPGQSPKLLIYKVSNRFSGVPDRFSGSGSGTDFTLKISRVEAEDLGVYFCSQSTHVPHTFGGGTKLEIK |
| 0.0094 µM | 0.000606 s⁻¹ | 64700 M⁻¹ s⁻¹ | 0.001 µM | 0.00107 s⁻¹ | 1.04e+06 M⁻¹ s⁻¹ | ACI-7088-4303A3-Ab1 (antibody, V domains shown) VH: QVQLQQSGAELVRPGASVTLSCKASGYTFTDYEMHWVKQTPVHGLEWIGVIDPETGGAVQNQKFKGKAILTADNSSSTAYMDLRSLTSEDSAVYNCAMGAALRLAYWGQGTLVTVSS VL: DVLMTQTPLSLPVSLGDQASISCRSSQSIVHSNGNSYLEWYLQKPGQSPKLLIYKVSNRFSGVPDRFSGSGSGTDFTLKINRVEAEDLGVYYCFQGSHVPFTFGSGTKLEIK |
| 0.0295 µM | 0.000312 s⁻¹ | 10600 M⁻¹ s⁻¹ | 0.0063 µM | 0.000583 s⁻¹ | 92800 M⁻¹ s⁻¹ | ACI-7079-2511B3-Ab3 (antibody, V domains shown) VH: DVQLQESGPGLVKPSQSLSLTCSVTGFSITSYYYWNWIRQFPGNKLEWMAYISYDGSNNYNPSLKNRISITRDTSKNQFFLKLNSVTTEDTATYYCTRGDWDWGQGTLVTVSA VL: not shown |
| 0.0403 µM | 51.7 s⁻¹ | 1.28e+09 M⁻¹ s⁻¹ | 0.0109 µM | 6.06 s⁻¹ | 5.58e+08 M⁻¹ s⁻¹ | ACI-7079-2603C1-Ab3 (antibody, V domains shown) VH: QVQLQQPGADLVKPGASVKLSCKASGYTFTSYWMQWTKQRPGQGLEWIGEIDPSDSYANYNQKFKGKATLTVDKYSSTAYMQLNSLTSEDSAVYYCALYDGPSYWGQGTLVTVS VL: ENVLTQSPAIMSASPGEKVTMTCSAGSSVSYMHWFQQKSSTSPKLWIYDTSKLPSGVPGRFSGSGSGNSYSLTISSMEAEDVATYYCFQGSGYPYTFGGGTKLEIK |
| 0.0161 µM | 0.00218 s⁻¹ | 345000 M⁻¹ s⁻¹ | 0.0072 µM | 0.00114 s⁻¹ | 158000 M⁻¹ s⁻¹ | ACI-7067-1107G5-Ab2 (antibody, V domains shown) VH: QVQLQQPGTELVKPGASVKLSCKASGYTFTKYWMHWVKQRPGQGLEWIGNINPNNGDTNYNEKFKSKATLTVDKSSSTAYMQLSSLTSEDSAVYYCAIAMDYWGQGTSVTVSS VL: DIQMTQSPSSLSAFLGERVSLTCRASQDIGNNLNWFQQEPDGTIKRLIYATSSLDSGVPKRFSGSRSGSEYSLTISSLESEDFVDYYCLQFGSSPLTFGAGTKLELK |
| 0.0001 µM | 4.37e-06 s⁻¹ | 30600 M⁻¹ s⁻¹ |  |  |  | ACI-8033-5A12-Ab1 (antibody, V domains shown) VH: QVHLKQSGADLVRPGASVKLSCKASGYTFTDYYINWVKQRPGQGLEWIARIYPGSGNTYYNEKFKGRATLSAEKSSTTAYMQLSSLTSEDSAVYFCVVGYYGAWGQGTTLTVSS VL: DVVMTQTPLSLPVSLGDQASISCRSSQSLVHSNGKTHLHWYLQKPGQSPKLLIYKVSNRFSGVPDRFSGSGSGTDFTLKISRVEAEDLGVYFCSQSTHVPWTFGGGTKLEIK |
| 0.0306 µM | 0.00135 s⁻¹ | 46000 M⁻¹ s⁻¹ | 0.008 µM | 0.00103 s⁻¹ | 129000 M⁻¹ s⁻¹ | ACI-7067-1102G3-Ab1 (antibody, V domains shown) VH: EVKLEESGGGLVQPGGSMKLSCAASGFTFSDAWMNWVRQSPEKGLEWVAEIRNKAHNHATYYAESVKGRFTISGDDSKSSVYLQMNNLRAEDTGIYYCTIYSYWGQGTLVTVSA VL: SIVMTQTPKFLLVSAGDRVTITCKASQSVTKDVAWYQQKPGQSPKLLIYSTSNRYSGVPDRFTGSGYGTDFTFTINTVQTEDLAVYFCQQDYRIPYTFGGGTKLEIK |
| 0.0919 µM | 0.000476 s⁻¹ | 5190 M⁻¹ s⁻¹ | 0.0076 µM | 0.000615 s⁻¹ | 80900 M⁻¹ s⁻¹ | ACI-7079-2506E2-Ab2 (antibody, V domains shown) VH: QVQLQQSGPELVRPGASVKISCKASGYAFSNSWMNWVKQRPGKGLEWIGRIFPGDGDTYYDGKFKGKVKLTTDKFSNTAYMQLRSLTSEDSAVYFCARWGGTNDEWFAHWGQGTLVTVSV VL: DIVLTQSPASLTVSLGQRATISCRASQSVSTSRNSYMHWYQQKPRQPPKLLIKYASNLESGVPARFSGSGSGADFTLNIHPVEEEDTATYYCQHSWDIPLTFGTGTKLELS |
| 0.0135 µM | 0.000244 s⁻¹ | 18100 M⁻¹ s⁻¹ | 0.0371 µM | 0.0632 s⁻¹ | 1.7e+06 M⁻¹ s⁻¹ | ACI-7088-4303A1-Ab1 (antibody, V domains shown) VH: EVQLQQSGAELVRPGASVKLSCTASGFNIKDDYMHWVKQRPEQGLEWIGWIDPENGDSEYASKFQGKATMTADTSSNTAYLQLSSLTSEDTAVYYCKTWGTAQALFPYWGQGTLVTVSA VL: DIVMTQSQKFMSTSVGDRVSITCKASQNVGTSVGWYQQKAGQSPKLLIHSASNRYTGVPDRFTGSGSGTDFTLTINNMQSEDLADYFCQQYRSYPLTFGAGTKLELK |
| 0.0084 µM | 0.000203 s⁻¹ | 24200 M⁻¹ s⁻¹ | 0.0034 µM | 0.0924 s⁻¹ | 2.73e+07 M⁻¹ s⁻¹ | ACI-7088-4305H7-Ab1 (antibody, V domains shown) VH: EVQLQQSGAELVRPGASVKLSCTASGFNIKDDYMHWVKQRPEQGLEWIGWIDPENGDTEYASKFQGKATMIADTSSNTAYLQLSSLTSEDTAVYYCKTWGTTQALFPYWGQGTLVTVSS VL: DIVMTQSQKFMSTSVGDRVSITCKASQNVGTAVGWYQQKAGQSPKLLIHSASNRYTGVPDRFTGSGSGTDFTLTINNMQSEDLADYFCQQYRSYPLTFGAGTKLELK |
| 0.0562 µM | 0.000862 s⁻¹ | 15400 M⁻¹ s⁻¹ | 0.0048 µM | 0.00412 s⁻¹ | 860000 M⁻¹ s⁻¹ | ACI-7079-2606A6-Ab2 (antibody, V domains shown) VH: QVQLQQSGPELVKPGASVKISCKASGFAFSSSWMNWVKQRPGKGLEWVGRIFPGDGDTNYDRKFKDKATLTADKSSSTAYMQLSSLTSEDSAVYFCARWTGGYDWFAYWGQGTLVTVSA VL: DIVLTQSPASLAVSLGQRATISCRASQSVSTSNYNYLHWYQQKPGQPPKLLITYASNLESGVPARFSGSGSGTDFTLNIHPVEEGDTATYYCQHSWEIPLTFGAGTKLELK |
| 0.0437 µM | 0.000636 s⁻¹ | 14600 M⁻¹ s⁻¹ | 0.195 µM | 0.0067 s⁻¹ | 34400 M⁻¹ s⁻¹ | ACI-7088-4303H6-Ab1 (antibody, V domains shown) VH: EVQLQQSGAELVRPGASVKLSCTASGFNIQDDYMHWVKQRPEQGLEWIGWIDPENGDTEYASKFQGKATLTADTSSNTAYLQLSRLTSEDTAVYYCTTAGSGVQLFDYWGQGTTLTVSA VL: DILMTQSQKFMSTSVGDRVSVTCKASQNVGTNVAWYQQKPGQSPKPLISSASSRYSGVPDRFTGSGSGTDFTLTISNVQSEDLADYFCQQYNRYPLTFGAGTKLELK |
